Assay results reported in US20220259593A1, “CONTROL OF MAMMALIAN GENE DOSAGE USING CRISPR” (The Regents of the University of California, priority 2019, published 2022).
Numbering of substitutions follows the chain as printed.

B1: cr870 (nucleic acid)
guide: GTTTAAGAGCTAAGCTGGAAACAGCAAAGCAAGTTTAAATAAGGCTAGTCCGTTATCAACTTGAAAAAGTGGCACCGAGTCGGTGCT
modifications: listed as DNA, chemistry not fully specified
B2: cr532 (nucleic acid)
guide: B1 guide with A27T, T61G, A68C, G72A, A74T, T84A, C86T
modifications: listed as DNA, chemistry not fully specified
B3: cr892 (nucleic acid)
guide: B1 guide with A27T, T61G, A68C, A74G, C75A, G83T, T84C
modifications: listed as DNA, chemistry not fully specified
B4: cr487 (nucleic acid)
guide: B1 guide with A27T, A32C
modifications: listed as DNA, chemistry not fully specified
B5: cr379 (nucleic acid)
guide: B1 guide with A26C, A27T
modifications: listed as DNA, chemistry not fully specified
B6: cr322 (nucleic acid)
guide: B1 guide with A27T, T49C, C57G
modifications: listed as DNA, chemistry not fully specified
B7: cr217 (nucleic acid)
guide: B1 guide with A27T, G33T, A65C
modifications: listed as DNA, chemistry not fully specified
B8: cr237 (nucleic acid)
guide: B1 guide with A27T, C45A, G48T, T61G, A68C, G77C, C81G
modifications: listed as DNA, chemistry not fully specified
B9: cr046 (nucleic acid)
guide: B1 guide with T2G, G7C, A27T
modifications: listed as DNA, chemistry not fully specified
B10: cr262 (nucleic acid)
guide: B1 guide with A27T, T34C, A59T, T70A
modifications: listed as DNA, chemistry not fully specified
B11: cr654 (nucleic acid)
guide: B1 guide with A27T, T34A, A65T
modifications: listed as DNA, chemistry not fully specified
B12: cr696 (nucleic acid)
guide: B1 guide with A27T, A31G, A47C, A58C
modifications: listed as DNA, chemistry not fully specified
B13: cr125 (nucleic acid)
guide: B1 guide with A27T, G33T, A65T
modifications: listed as DNA, chemistry not fully specified
B14: cr154 (nucleic acid)
guide: B1 guide with A27T, A28C, G52A
modifications: listed as DNA, chemistry not fully specified
B15: cr586 (nucleic acid)
guide: B1 guide with A27T, T34C, A74C, T84G
modifications: listed as DNA, chemistry not fully specified
B16: cr591 (nucleic acid)
guide: B1 guide with A27T, A55G, A58T
modifications: listed as DNA, chemistry not fully specified
B17: cr344 (nucleic acid)
guide: B1 guide with A27T, G52A, A66T
modifications: listed as DNA, chemistry not fully specified
B18: cr982 (nucleic acid)
guide: B1 guide with A27T, T34C, C75A, G83T
modifications: listed as DNA, chemistry not fully specified
B19: cr972 (nucleic acid)
guide: B1 guide with A27T, G44T, C45G, G48C, C50A, T61C, A68G
modifications: listed as DNA, chemistry not fully specified
B20: cr403 (nucleic acid)
guide: B1 guide with A27T, T34C, C76A, G82T
modifications: listed as DNA, chemistry not fully specified
B21: cr209 (nucleic acid)
guide: B1 guide with A27T, A41C
modifications: listed as DNA, chemistry not fully specified
B22: cr720 (nucleic acid)
guide: B1 guide with A27T, T34C, C45T, G48A
modifications: listed as DNA, chemistry not fully specified
B23: cr073 (nucleic acid)
guide: B1 guide with A5T, A8C, A27T
modifications: listed as DNA, chemistry not fully specified
B24: cr110 (nucleic acid)
guide: B1 guide with A27T, C45A, G48T, C75T, C76T, G82A, G83A
modifications: listed as DNA, chemistry not fully specified
B25: cr992 (nucleic acid)
guide: B1 guide with A27T, A28T, G52A
modifications: listed as DNA, chemistry not fully specified
B26: cr027 (nucleic acid)
guide: B1 guide with T3C, G7A, A27T
modifications: listed as DNA, chemistry not fully specified
B27: cr907 (nucleic acid)
guide: B1 guide with A27T, G52A, A64T, G79T
modifications: listed as DNA, chemistry not fully specified
B28: cr158 (nucleic acid)
guide: B1 guide with A27T, G43A, C45T, G48A, C51T, T62C, A67G
modifications: listed as DNA, chemistry not fully specified
B29: cr076 (nucleic acid)
guide: B1 guide with G1A, T2A, A27T
modifications: listed as DNA, chemistry not fully specified
B30: cr198 (nucleic acid)
guide: B1 guide with A27T, G33T, G79A
modifications: listed as DNA, chemistry not fully specified
B31: cr246 (nucleic acid)
guide: B1 guide with A27T, T40A, A47G
modifications: listed as DNA, chemistry not fully specified
B32: cr077 (nucleic acid)
guide: B1 guide with T2A, A8T, A27T
modifications: listed as DNA, chemistry not fully specified
B33: cr480 (nucleic acid)
guide: B1 guide with A27T, C60A, G69T, G72A, G77T, C81A, C86T
modifications: listed as DNA, chemistry not fully specified
B34: cr417 (nucleic acid)
guide: B1 guide with A27T, G33T, A66G
modifications: listed as DNA, chemistry not fully specified
B35: cr965 (nucleic acid)
guide: B1 guide with A27T, C45G, G48C, A74C, C75T, G83A, T84G
modifications: listed as DNA, chemistry not fully specified
B36: cr662 (nucleic acid)
guide: B1 guide with A27T, T35A
modifications: listed as DNA, chemistry not fully specified
B37: cr331 (nucleic acid)
guide: B1 guide with A27T, T34C, C75T, G83A
modifications: listed as DNA, chemistry not fully specified
B38: cr277 (nucleic acid)
guide: B1 guide with A27T, G43A, C51T, T62A, A67T, C76A, G82T
modifications: listed as DNA, chemistry not fully specified
B39: cr374 (nucleic acid)
guide: B1 guide with A27T, C45A
modifications: listed as DNA, chemistry not fully specified
B40: cr025 (nucleic acid)
guide: B1 guide with G1C, G7A, A27T
modifications: listed as DNA, chemistry not fully specified
B41: cr792 (nucleic acid)
guide: B1 guide with A27T, T34C, G72C, C86G
modifications: listed as DNA, chemistry not fully specified

Each molecule was assayed on K562 CRISPRi cells (assay: Constant region variant library pooled growth screen, K562). Settings: sgRNA constant region variants; activity relative to the original, un-modified constant region cr995.
Type: cell-based, human
Outline: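 Library of sgRNA constant-region variants, each paired with 36 targeting sequences (essential-gene and non-targeting), transduced in duplicate into K562 CRISPRi cells, puromycin-selected and grown 4–8 days at >2000× coverage. Activity per variant is its growth phenotype normalised to the same targeting sequence with unmodified constant region.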

Point of comparison: B1, Mean relative activity 1.04. Against it:
- B2 — higher, 1.093
- B3 — higher, 1.041
- B4 — lower, 1.039
- B5 — higher, 1.041

Same assay, conditions: sgRNA constant region variants; activity relative to the unmodified constant region cr995

Point of comparison: B31, Mean relative activity 0.2779. Against it:
- B6 — higher, 0.3033
- B7 — higher, 0.2802
- B8 — higher, 0.2843
- B9 — lower, 0.2592
- B10 — lower, 0.2329
- B11 — lower, 0.2692
- B12 — lower, 0.2553
- B13 — higher, 0.2852
- B14 — higher, 0.2827
- B15 — higher, 0.2939
- B16 — higher, 0.2933
- B17 — higher, 0.2836
- B18 — higher, 0.2842
- B19 — lower, 0.2767
- B20 — lower, 0.2381
- B21 — higher, 0.2959
- B22 — lower, 0.2481
- B23 — lower, 0.265
- B24 — lower, 0.2547
- B25 — higher, 0.2785
- B26 — higher, 0.2878
- B27 — higher, 0.2821
- B28 — lower, 0.2403
- B29 — lower, 0.2741
- B30 — lower, 0.236
- B32 — lower, 0.2538
- B33 — lower, 0.2543
- B34 — higher, 0.2821
- B35 — lower, 0.2572
- B36 — lower, 0.2491
- B37 — higher, 0.2828
- B38 — lower, 0.2732
- B39 — lower, 0.2686
- B40 — lower, 0.2396
- B41 — lower, 0.242
